Results published in patent US20120122239A1.

How the values were obtained:
[1] = biological target: glycosylated human proBNP (HyTest, Turku, Finland; Catalog No. 8GOB2) (human); assay: sandwich CMIA, capture 15C4, analyte 43.3 pM
[2] = biological target: human NT-pro B-type natriuretic peptide (HyTest, Turku, Finland; Catalog No. 8NT1) (human); assay: sandwich CMIA, capture 15C4, analyte 43.3 pM
[3] = biological target: human pro B-type natriuretic peptide (HyTest, Turku, Finland; Catalog No. 8PRO8) (human); assay: sandwich CMIA, capture 15C4, analyte 43.3 pM
human pro B-type natriuretic peptide (HyTest, Turku, Finland; Catalog No. 8PRO8) (human), sequence (chain, as listed by the source): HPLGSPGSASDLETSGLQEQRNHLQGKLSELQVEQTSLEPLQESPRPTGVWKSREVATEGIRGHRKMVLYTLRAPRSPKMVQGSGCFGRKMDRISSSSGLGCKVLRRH

[4] = biological target: glycosylated human proBNP (HyTest, Turku, Finland; Catalog No. 8GOB2) (human); assay: sandwich CMIA, capture 15C4, analyte 86.6 pM
[5] = biological target: human NT-pro B-type natriuretic peptide (HyTest, Turku, Finland; Catalog No. 8NT1) (human); assay: sandwich CMIA, capture 15C4, analyte 86.6 pM
[6] = biological target: human pro B-type natriuretic peptide (HyTest, Turku, Finland; Catalog No. 8PRO8) (human); assay: sandwich CMIA, capture 15C4, analyte 86.6 pM
[7] = biological target: glycosylated human proBNP (HyTest, Turku, Finland; Catalog No. 8GOB2) (human); assay: sandwich CMIA, capture 15F11, analyte 43.3 pM
[8] = biological target: human NT-pro B-type natriuretic peptide (HyTest, Turku, Finland; Catalog No. 8NT1) (human); assay: sandwich CMIA, capture 15F11, analyte 43.3 pM
[9] = biological target: human pro B-type natriuretic peptide (HyTest, Turku, Finland; Catalog No. 8PRO8) (human); assay: sandwich CMIA, capture 15F11, analyte 43.3 pM
[10] = biological target: glycosylated human proBNP (HyTest, Turku, Finland; Catalog No. 8GOB2) (human); assay: sandwich CMIA, capture 15F11, analyte 86.6 pM
[11] = biological target: human NT-pro B-type natriuretic peptide (HyTest, Turku, Finland; Catalog No. 8NT1) (human); assay: sandwich CMIA, capture 15F11, analyte 86.6 pM
[12] = biological target: human pro B-type natriuretic peptide (HyTest, Turku, Finland; Catalog No. 8PRO8) (human); assay: sandwich CMIA, capture 15F11, analyte 86.6 pM
[13] = biological target: glycosylated human proBNP (HyTest, Turku, Finland; Catalog No. 8GOB2) (human); assay: sandwich CMIA, capture 15C4, analyte 288.7 pM
[14] = biological target: human NT-pro B-type natriuretic peptide (HyTest, Turku, Finland; Catalog No. 8NT1) (human); assay: sandwich CMIA, capture 15C4, analyte 288.7 pM
[15] = biological target: human pro B-type natriuretic peptide (HyTest, Turku, Finland; Catalog No. 8PRO8) (human); assay: sandwich CMIA, capture 15C4, analyte 288.7 pM
[16] = biological target: glycosylated human proBNP (HyTest, Turku, Finland; Catalog No. 8GOB2) (human); assay: sandwich CMIA, capture 15C4, analyte 0.0 pM (blank)
[17] = biological target: human NT-pro B-type natriuretic peptide (HyTest, Turku, Finland; Catalog No. 8NT1) (human); assay: as above
[18] = biological target: human pro B-type natriuretic peptide (HyTest, Turku, Finland; Catalog No. 8PRO8) (human); assay: as above
[19] = biological target: glycosylated human proBNP (HyTest, Turku, Finland; Catalog No. 8GOB2) (human); assay: sandwich CMIA, capture 15F11, analyte 0.0 pM (blank)
[20] = biological target: human NT-pro B-type natriuretic peptide (HyTest, Turku, Finland; Catalog No. 8NT1) (human); assay: as above
[21] = biological target: human pro B-type natriuretic peptide (HyTest, Turku, Finland; Catalog No. 8PRO8) (human); assay: as above
[22] = biological target: glycosylated human proBNP (HyTest, Turku, Finland; Catalog No. 8GOB2) (human); assay: sandwich CMIA, capture 15C4, 43.3 pM, against human NT-proBNP
[23] = biological target: human pro B-type natriuretic peptide (HyTest, Turku, Finland; Catalog No. 8PRO8) (human); assay: as above
[24] = biological target: glycosylated human proBNP (HyTest, Turku, Finland; Catalog No. 8GOB2) (human); assay: sandwich CMIA, capture 15C4, 288.7 pM, against human NT-proBNP
[25] = biological target: human pro B-type natriuretic peptide (HyTest, Turku, Finland; Catalog No. 8PRO8) (human); assay: as above
[26] = biological target: glycosylated human proBNP (HyTest, Turku, Finland; Catalog No. 8GOB2) (human); assay: sandwich CMIA, capture 15C4, 577.4 pM, against human NT-proBNP
[27] = biological target: human pro B-type natriuretic peptide (HyTest, Turku, Finland; Catalog No. 8PRO8) (human); assay: as above
[28] = biological target: glycosylated human proBNP (HyTest, Turku, Finland; Catalog No. 8GOB2) (human); assay: sandwich CMIA, capture 15F11, 43.3 pM, against human NT-proBNP
[29] = biological target: human pro B-type natriuretic peptide (HyTest, Turku, Finland; Catalog No. 8PRO8) (human); assay: as above
[30] = biological target: glycosylated human proBNP (HyTest, Turku, Finland; Catalog No. 8GOB2) (human); assay: sandwich CMIA, capture 15F11, 86.6 pM, against human NT-proBNP
[31] = biological target: human pro B-type natriuretic peptide (HyTest, Turku, Finland; Catalog No. 8PRO8) (human); assay: as above
[32] = biological target: human pro B-type natriuretic peptide (HyTest, Turku, Finland; Catalog No. 8PRO8) (human); assay: sandwich CMIA, capture 15F11, 288.7 pM, against human NT-proBNP
[33] = biological target: glycosylated human proBNP (HyTest, Turku, Finland; Catalog No. 8GOB2) (human); assay: sandwich CMIA, capture 15F11, 577.4 pM, against human NT-proBNP
[34] = biological target: human pro B-type natriuretic peptide (HyTest, Turku, Finland; Catalog No. 8PRO8) (human); assay: as above

human NT-pro B-type natriuretic peptide (HyTest, Turku, Finland; Catalog No. 8NT1) (human), sequence (chain, as listed by the source): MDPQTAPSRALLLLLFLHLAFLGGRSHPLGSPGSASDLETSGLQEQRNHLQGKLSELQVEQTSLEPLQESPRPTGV

anti-human NT-proBNP/anti-human proBNP labeled monoclonal antibody 29D12 (HyTest, Turku, Finland)
Analyte rlus [1]: 877 rlus | Analyte rlus [2]: 8870 rlus | Analyte rlus [3]: 2170 rlus | Analyte rlus [4]: 1020 rlus | Analyte rlus [5]: 19300 rlus | Analyte rlus [6]: 3830 rlus | Analyte rlus [7]: 2320 rlus | Analyte rlus [8]: 1990 rlus | Analyte rlus [9]: 1570 rlus | Analyte rlus [10]: 4470 rlus | Analyte rlus [11]: 3540 rlus | Analyte rlus [12]: 2210 rlus | Analyte rlus [13]: 1220 rlus | Analyte rlus [14]: 82800 rlus | Analyte rlus [15]: 12100 rlus | Analyte rlus [16]: 892 rlus | Analyte rlus [17]: 892 rlus | Analyte rlus [18]: 892 rlus | Analyte rlus [19]: 912 rlus | Analyte rlus [20]: 912 rlus | Analyte rlus [21]: 912 rlus | % Cross-reactivity [22]: -0.2% | % Cross-reactivity [23]: 16% | % Cross-reactivity [24]: 0.4% | % Cross-reactivity [25]: 13.7% | % Cross-reactivity [26]: 0.3% | % Cross-reactivity [27]: 14% | % Cross-reactivity [28]: 132% | % Cross-reactivity [29]: 61.2% | % Cross-reactivity [30]: 136% | % Cross-reactivity [31]: 49.3% | % Cross-reactivity [32]: 38.3% | % Cross-reactivity [33]: 115% | % Cross-reactivity [34]: 31.8%
